The assay deals with POLRMT.STREP2 (POLRMT carrying a FLAG and a STREP2 binding group) (human, UniProt O00411 42-1230). Put plainly: pull-down.
POLRMT.STREP2 (POLRMT carrying a FLAG and a STREP2 binding group), sequence (O00411 42-1230): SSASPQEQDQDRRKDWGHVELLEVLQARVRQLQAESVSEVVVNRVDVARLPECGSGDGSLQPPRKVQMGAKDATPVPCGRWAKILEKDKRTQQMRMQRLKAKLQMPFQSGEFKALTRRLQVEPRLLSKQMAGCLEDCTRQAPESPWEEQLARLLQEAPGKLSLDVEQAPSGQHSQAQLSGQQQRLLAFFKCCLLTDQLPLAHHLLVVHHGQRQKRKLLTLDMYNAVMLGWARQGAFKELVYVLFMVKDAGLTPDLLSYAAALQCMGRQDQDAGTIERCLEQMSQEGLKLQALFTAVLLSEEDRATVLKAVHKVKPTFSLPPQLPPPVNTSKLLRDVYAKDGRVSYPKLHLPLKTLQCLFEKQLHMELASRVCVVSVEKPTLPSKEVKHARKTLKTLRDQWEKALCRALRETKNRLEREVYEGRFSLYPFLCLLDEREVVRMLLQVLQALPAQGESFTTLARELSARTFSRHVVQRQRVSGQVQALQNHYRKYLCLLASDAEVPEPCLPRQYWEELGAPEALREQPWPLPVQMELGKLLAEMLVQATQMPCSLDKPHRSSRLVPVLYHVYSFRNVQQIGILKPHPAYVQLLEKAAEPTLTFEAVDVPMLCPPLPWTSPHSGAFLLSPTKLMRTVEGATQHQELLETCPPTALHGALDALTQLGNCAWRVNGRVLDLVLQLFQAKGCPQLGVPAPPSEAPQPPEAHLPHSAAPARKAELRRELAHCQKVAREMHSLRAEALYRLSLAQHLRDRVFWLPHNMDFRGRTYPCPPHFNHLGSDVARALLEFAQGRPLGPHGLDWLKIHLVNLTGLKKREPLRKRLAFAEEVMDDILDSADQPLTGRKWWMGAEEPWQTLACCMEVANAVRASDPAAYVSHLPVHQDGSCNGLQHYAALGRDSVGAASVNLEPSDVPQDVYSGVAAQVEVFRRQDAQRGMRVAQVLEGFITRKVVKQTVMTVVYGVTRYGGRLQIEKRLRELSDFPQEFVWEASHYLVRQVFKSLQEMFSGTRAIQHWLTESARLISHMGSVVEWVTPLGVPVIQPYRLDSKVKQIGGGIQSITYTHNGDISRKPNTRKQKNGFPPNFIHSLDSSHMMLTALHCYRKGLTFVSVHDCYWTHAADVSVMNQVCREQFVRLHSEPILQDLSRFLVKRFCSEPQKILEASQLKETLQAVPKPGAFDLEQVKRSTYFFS

B1: TEFM (transcription elongation factor of mitochondria), endogenous (natural protein, human (endogenous in HEK 293T), UniProt Q96QE5 36-360, looked up)
chain: KSTTPKKITPNVTFCDENAKEPENALDKLFSSEQQASILHVLNTASTKELEAFRLLRGRRSINIVEHRENFGPFQNLESLMNVPLFKYKSTVQVCNSILCPKTGREKRKSPENRFLRKLLKPDIERERLKAVNSIISIVFGTRRIAWAHLDRKLTVLDWQQSDRWSLMRGIYSSSVYLEEISSIISKMPKADFYVLEKTGLSIQNSSLFPILLHFHIMEAMLYALLNKTFAQDGQHQVLSMNRNAVGKHFELMIGDSRTSGKELVKQFLFDSILKADPRVFFPSDKIVHYRQMFLSTELQRVEELYDSLLQAIAFYELAVFDSQP
Turning to B1, the “amount in the POLRMT.STREP2 peak elution fractions relative to TFAM” value was found to be 2 fold and the “amount in the POLRMT.STREP2 peak elution fractions relative to TFB2M” value was determined as 5 fold.
